The term EC50 (read off the curve) denotes the concentration needed to bring the measured effect to its halfway point. High values mean a less potent agent, low ones a more potent agent. The term Kd denotes the free concentration of one partner at which half of the binding sites on the other are occupied at equilibrium, for simple one-to-one binding. A higher Kd goes with a looser complex.

The values below come from patent US20250042957A1.

For assay [1], the target named is TargetA. The assay is described as follows: ELISA on TargetA, DARPin titrated. A general note: ELISA stands for enzyme-linked immunosorbent assay.
Assay [2] deals with TargetA. Nature of the assay: SPR, bio-TargetA coated on NAD chip, DARPin 333.33-4.11 nM.

B1: 2-in-1 DARPin 24 (SEQ ID NO: 93) (designed binder)
chain: DLGKKLLQAARAGQLDEVRELLKAGADVNAKDSQGRTPLHLAAFAGHLEIVEVLLKAGADVNAKDHAGWTPLHLAAYAGHLEIVEVLVKAGADVNAKDTEGKTPLHIAAWFGHLEIVEVLLKAGADVNAKDKSGKTPLHLAARAGHLEIVEVLLKAGADVNAKDNSGQTPLHEAAWAGHLEIVEVLLKAGADVNAKNSRGWTPLHTAAQTGHLEIFEVLLKAGADVNAKNDKRVTPLHLAAALGHLEIVEVLLKAGADVNARDSWGTTPADLAAKYGHQDIAEVLQKAA
The molecule B1 displayed an EC50 (read off the curve) in assay [1] of 0.8 nM. In assay [2], this molecule yielded a Kd of 0.119 nM.

B2: 2-in-1 DARPin 25 (SEQ ID NO: 94) (designed binder)
chain: DLGKKLLQAARAGQLDEVRELLKAGADVNAKDSQGRTPLHLAAFAGHLEIVEVLLKAGADVNAKDHAGWTPLHLAAYAGHLEIVEVLVKAGADVNAKDTEGKTPLHIAAWFGHLEIVEVLLKAGADVNAKDKSGKTPLHLAARAGHLEIVEVLLKAGADVNAKDNSGQTPLHLAAWAGHLEIVEVLLKAGADVNAKNSRGWTPLHTAAQTGHLEIFEVLLKAGADVNAKNDKRVTPLHLAAALGHLEIVEVLLKAGADVNARDSWGTTPADLAAKYGHQDIAEVLQKAA
B2: the half-maximal effective concentration (EC50 (read off the curve)) in assay [1] turned out to be 0.7 nM. The molecule also had a Kd in assay [2] of 0.018 nM.

B3: Parent DARPin no 4 (SEQ ID NO: 88) (designed binder)
chain: DLGKKLLQAARAGQLDEVRELLKAGADVNAKDSQGRTPLHLAAFAGHLEIVEVLLKAGADVNAKDHAGWTPLHLAAYAGHLEIVEVLVKAGADVNAKDTEGKTPLHIAAWFGHLEIVEVLLKAGADVNAQDKSGKTPADLTARAGHQDIAEVLQKAA
In the case of B3, the Kd in assay [2] was 0.16 nM.

B4: 2-in-1 DARPin 23 (SEQ ID NO: 92) (designed binder)
chain: DLGKKLLQAARAGQLDEVRELLKAGADVNAKDSQGRTPLHLAAFAGHLEIVEVLLKAGADVNAKDHAGWTPLHLAAYAGHLEIVEVLVKAGADVNAKDTEGKTPLHIAAWFGHLEIVEVLLKAGADVNAKDKSGQTPLHLAAWAGHLEIVEVLLKAGADVNAKNSRGWTPLHTAAQTGHLEIFEVLLKAGADVNAKNDKRVTPLHLAAALGHLEIVEVLLKAGADVNARDSWGTTPADLAAKYGHQDIAEVLQKAA
B4: in assay [1], the concentration for a half-maximal effect (EC50 (read off the curve)) worked out at 1 nM. For the same molecule, the Kd in assay [2] was 0.024 nM.
